In patent US20110239327A1, “Nematicidal Effects of Cysteine Proteinases and Methods of Use Thereof to Treat Nematode Infestation” (priority 2007, published 2011):

Assays:
Steinernema feltiae = test: In vitro effect on the beneficial nematode Steinernema feltiae; format: cell-based
Protocol: Eggs of M. incognita race 1 from North Carolina State University, USA were collected from tomato-infected roots grown in a glasshouse at 23° C. in a 16:8 h light-dark regime. Eggs were extracted using 1% hypochlorite (NaClO) solution (Hussey and Barker, 1973) or by picking egg masses from tomato-infected roots. Juveniles (J2) were hatched from the eggs and egg masses in water. Heterodera glycines eggs were obtained from soil samples stored in Rothamsted-Research. Second stage juveniles (J2) were hatched from the eggs in water after 10 days. Pratylenchus penetrans were a gift from Dr. Deeren Anne-Marie from the Institute for Agricultural and Fisheries Research, Merelbeke, Belgium. The beneficial nematodes Steinernema feltiae and Heterorhabditis megidis were a gift from Dr. Paul Williams from Becker Underwood.
Control wells were set up which contained J2s and distilled water with 16 mM L-cysteine. Each enzyme concentration and the controls were set up in duplicate (i.e. n=2). The actual number of active J2s per well was counted with the aid of an Olympus inverted microscope, prior to the addition of the enzymes, and then the J2s were incubated in the dark at room temperature for 2 hs, 16 hs, 24 hs or 40 hr. The number of live and dead J2s per well was counted after each enzyme incubation. The same procedure was followed when setting up further experiments to compare the effects of these enzymes with Heterodera glycines J2, Pratylenchus penetrans, Steinernema feltiae and Heterorhabditis megidis.
The beneficial nematodes Hetorhabditis megidis and Steinernema feltiae were incubated with dilutions of actinidin, bromelain and pappain from papaya latex (see concentrations used in table 3). These nematodes reacted differentially to these cysteine proteinases (Tables 4 and 5). […] S. feltiae were dead at all concentrations of actinidin tested. […] After 16 hs of observation the enzyme solutions were diluted with water (to half of the initial concentrations) however, no change in nematode movement was observed after 24 hs.

M. incognita J2 = test: In planta bioassay, two soil applications: nematode infection of tomato roots; format: in vivo, M. incognita on tomato plants; details: two soil applications of enzyme (250 μM papain, 2.2 μM bromelain, 3.3 mM actinidin as printed), soil 16% organic matter, 11 days
Protocol: Oxamyl is supplied as 10% liquid Vydate. 125 μl of a solution 1000 fold dilution of 10% formulation (kindly supplied by DK from NIU) was applied to 5 g of the soil mixture with 16% organic matter, to give a partial nematicidal effect. Soil mixtures were wetted with PBS pH 7.2, 16 hrs prior nematode application of 1000 or 2000 M. incognita J2. Infected soil mixtures were treated with water (control) or 250 μM of active papain in 16 mM of L-cysteine or a combination of Vydate and 250 μM of active papain in 16 mM of L-cysteine. After 48 hs tomato seedlings one month old were added to the treated soils. After 11 days the roots were washed free of soil and chopped to approximately 2 mm pieces. The root pieces of each tomato plant was placed in muslin bags and stained with acid-fuchsin. The stained roots were examined under microscope and all the nematodes present in the roots were counted. […] After 48 hours tomato seedlings one month old were added to the treated soils and after 11 days post infection nematode development inside root tissues was assessed as described above.
The avermectins are macrocyclic lactones produced by the actinomycete Streptomyces avermitilis. […] After 48 hs tomato seedlings one month old were added to the treated soils and after 11 days post infection nematode development inside root tissues was assessed as described above. […]

B1: papain (protein, UniProt P00784 134-345, looked up)
Papain: IPEYVDWRQKGAVTPVKNQGSCGSCWAFSAVVTIEGIIKIRTGNLNEYSEQELLDCDRRSYGCNGGYPWSALQLVAQYGIHYRNTYPYEGVQRYCRSREKGPYAAKTDGVRQVQPYNEGALLYSIANQPVSVVLEAAGKDFQLYRGGIFVGPCGNKVDHAVAAVGYGPNYILIKNSWGTGWGENGYIRIKRGTGNSYGVCGLYTSSFYPVKN
notes: cysteine proteinase from Carica papaya, Merops C01.001, Sigma P3125
In the case of B1, the “only papain concentration that affected S. feltiae movement” value (Steinernema feltiae) is reported as 250 µM, the “nematode motility or behaviour” value (Steinernema feltiae; enzyme concentration A (Table 3): actinidin 3.3 mM, bromelain 2.2 mM, papain 250 uM) is reported as 70% paralysed and the “nematode motility or behaviour” value (Steinernema feltiae; enzyme concentration B: actinidin 1.7 mM, bromelain 1.1 mM, papain 125 uM) is reported as “All moving slowly”. The “reduction of nematode infection of plants” value (M. incognita J2) was 89%.
